The chains are these.
B1: Variant A2M, bait region SEQ ID NO 126, P01023 24-1474 (protein)
chain: SVSGKPQYMVLVPSLLHTETTEKGCVLLSYLNETVTVSASLESVRGNRSLFTDLEAENDVLHCVAFAVPKSSSNEEVMFLTVQVKGPTQEFKKRTTVMVKNEDSLVFVQTDKSIYKPGQTVKFRVVSMDENFHPLNELIPLVYIQDPKGNRIAQWQSFQLEGGLKQFSFPLSSEPFQGSYKVVVQKKSGGRTEHPFTVEEFVLPKFEVQVTVPKIITILEEEMNVSVCGLYTYGKPVPGHVTVSICRKYSDASDCHGEDSQAFCEKFSGQLNSHGCFYQQVKTKVFQLKRKEYEMKLHTEAQIQEEGTVVELTGRQSSEITRTITKLSFVKVDSHFRQGIPFFGQVRLVDGKGVPIPNKVIFIRGNEANYYSNATTDEHGLVQFSINTTNVMGTSLTVRVNYKDRSPCYGYQWVSEEHEEAHHTAYLVFSPSKSFVHLEPMSHELPCGHTQTVQAHYILNGGTLLGLKKLSFYYLIMAKGGIVRTGTHGLLVKQEDMKGHFSISIPVKSDIAPVARLLIYAVLPTGDVIGDSAKYDVENCLANKVDLSFSPSQSLPASHAHLRVTAAPQSVCALRAVDQSVLLMKPDAELSASSVYNLLPEKDLTGFPGPLNDQDDEDCINRHNVYINGITYTPVSSTNEKDMYSFLEDMGLKAFTNSKIRKPKMCPQLEQYEMHGPEGEGEGEGIPENFFGVSEDLVVQISELEGRGSVEEPHTKLRKYFPETWIWDLVVVNSAGVAEVGVTVPDTITEWKAGAFCLSEDAGLGISSTASLRAFQPFFVELTMPYSVIRGEAFTLKATVLNYLPKCIRVSVQLEASPAFLAVPVEKEQAPHCICANGRQTVSWAVTPKSLGNVNFTVSAEALESQELCGTEVPSVPEHGRKDTVIKPLLVEPEGLEKETTFNSLLCPSGGEVSEELSLKLPPNVVEESARASVSVLGDILGSAMQNTQNLLQMPYGCGEQNMVLFAPNIYVLDYLNETQQLTPEIKSKAIGYLNTGYQRQLNYKHYDGSYSTFGERYGRNQGNTWLTAFVLKTFAQARAYIFIDEAHITQALIWLSQRQKDNGCFRSSGSLLNNAIKGGVEDEVTLSAYITIALLEIPLTVTHPVVRNALFCLESAWKTAQEGDHGSHVYTKALLAYAFALAGNQDKRKEVLKSLNEEAVKKDNSVHWERPQKPKAPVGHFYEPQAPSAEVEMTSYVLLAYLTAQPAPTSEDLTSATNIVKWITKQQNAQGGFSSTQDTVVALHALSKYGAATFTRTGKAAQVTIQSSGTFSSKFQVDNNNRLLLQQVSLPELPGEYSMKVTGEGCVYLQTSLKYNILPEKEEFPFALGVQTLPQTCDEPKAHTSFQISLSVSYTGSRSASNMAIVDVKMVSGFIPLKPTVKMLERSNHVSRTEVSSNHVLIYLDKVSNQTLSLFFTVLQDVPVRDLKPAIVKVYDYYETDEFAIAEYNAPCSKDLGNADYKDDDDKGASHHHHHH
B2: Variant A2M, bait region SEQ ID NO 125, P01023 24-1474 (protein)
chain: SVSGKPQYMVLVPSLLHTETTEKGCVLLSYLNETVTVSASLESVRGNRSLFTDLEAENDVLHCVAFAVPKSSSNEEVMFLTVQVKGPTQEFKKRTTVMVKNEDSLVFVQTDKSIYKPGQTVKFRVVSMDENFHPLNELIPLVYIQDPKGNRIAQWQSFQLEGGLKQFSFPLSSEPFQGSYKVVVQKKSGGRTEHPFTVEEFVLPKFEVQVTVPKIITILEEEMNVSVCGLYTYGKPVPGHVTVSICRKYSDASDCHGEDSQAFCEKFSGQLNSHGCFYQQVKTKVFQLKRKEYEMKLHTEAQIQEEGTVVELTGRQSSEITRTITKLSFVKVDSHFRQGIPFFGQVRLVDGKGVPIPNKVIFIRGNEANYYSNATTDEHGLVQFSINTTNVMGTSLTVRVNYKDRSPCYGYQWVSEEHEEAHHTAYLVFSPSKSFVHLEPMSHELPCGHTQTVQAHYILNGGTLLGLKKLSFYYLIMAKGGIVRTGTHGLLVKQEDMKGHFSISIPVKSDIAPVARLLIYAVLPTGDVIGDSAKYDVENCLANKVDLSFSPSQSLPASHAHLRVTAAPQSVCALRAVDQSVLLMKPDAELSASSVYNLLPEKDLTGFPGPLNDQDDEDCINRHNVYINGITYTPVSSTNEKDMYSFLEDMGLKAFTNSKIRKPKMCPQLEQYEMHGPSELEGRGSIPENFFGVEAIPMSIPTSEDLVVQIVEEPHTKLRKYFPETWIWDLVVVNSAGVAEVGVTVPDTITEWKAGAFCLSEDAGLGISSTASLRAFQPFFVELTMPYSVIRGEAFTLKATVLNYLPKCIRVSVQLEASPAFLAVPVEKEQAPHCICANGRQTVSWAVTPKSLGNVNFTVSAEALESQELCGTEVPSVPEHGRKDTVIKPLLVEPEGLEKETTFNSLLCPSGGEVSEELSLKLPPNVVEESARASVSVLGDILGSAMQNTQNLLQMPYGCGEQNMVLFAPNIYVLDYLNETQQLTPEIKSKAIGYLNTGYQRQLNYKHYDGSYSTFGERYGRNQGNTWLTAFVLKTFAQARAYIFIDEAHITQALIWLSQRQKDNGCFRSSGSLLNNAIKGGVEDEVTLSAYITIALLEIPLTVTHPVVRNALFCLESAWKTAQEGDHGSHVYTKALLAYAFALAGNQDKRKEVLKSLNEEAVKKDNSVHWERPQKPKAPVGHFYEPQAPSAEVEMTSYVLLAYLTAQPAPTSEDLTSATNIVKWITKQQNAQGGFSSTQDTVVALHALSKYGAATFTRTGKAAQVTIQSSGTFSSKFQVDNNNRLLLQQVSLPELPGEYSMKVTGEGCVYLQTSLKYNILPEKEEFPFALGVQTLPQTCDEPKAHTSFQISLSVSYTGSRSASNMAIVDVKMVSGFIPLKPTVKMLERSNHVSRTEVSSNHVLIYLDKVSNQTLSLFFTVLQDVPVRDLKPAIVKVYDYYETDEFAIAEYNAPCSKDLGNADYKDDDDKGASHHHHHH
B3: Variant A2M, bait region SEQ ID NO 124, P01023 24-1474 (protein)
chain: SVSGKPQYMVLVPSLLHTETTEKGCVLLSYLNETVTVSASLESVRGNRSLFTDLEAENDVLHCVAFAVPKSSSNEEVMFLTVQVKGPTQEFKKRTTVMVKNEDSLVFVQTDKSIYKPGQTVKFRVVSMDENFHPLNELIPLVYIQDPKGNRIAQWQSFQLEGGLKQFSFPLSSEPFQGSYKVVVQKKSGGRTEHPFTVEEFVLPKFEVQVTVPKIITILEEEMNVSVCGLYTYGKPVPGHVTVSICRKYSDASDCHGEDSQAFCEKFSGQLNSHGCFYQQVKTKVFQLKRKEYEMKLHTEAQIQEEGTVVELTGRQSSEITRTITKLSFVKVDSHFRQGIPFFGQVRLVDGKGVPIPNKVIFIRGNEANYYSNATTDEHGLVQFSINTTNVMGTSLTVRVNYKDRSPCYGYQWVSEEHEEAHHTAYLVFSPSKSFVHLEPMSHELPCGHTQTVQAHYILNGGTLLGLKKLSFYYLIMAKGGIVRTGTHGLLVKQEDMKGHFSISIPVKSDIAPVARLLIYAVLPTGDVIGDSAKYDVENCLANKVDLSFSPSQSLPASHAHLRVTAAPQSVCALRAVDQSVLLMKPDAELSASSVYNLLPEKDLTGFPGPLNDQDDEDCINRHNVYINGITYTPVSSTNEKDMYSFLEDMGLKAFTNSKIRKPKMCPQLEQYEMHGPKEEEGLGSSELEGRGSEAIPMSIPTIPENFFGVVEEPHTKLRKYFPETWIWDLVVVNSAGVAEVGVTVPDTITEWKAGAFCLSEDAGLGISSTASLRAFQPFFVELTMPYSVIRGEAFTLKATVLNYLPKCIRVSVQLEASPAFLAVPVEKEQAPHCICANGRQTVSWAVTPKSLGNVNFTVSAEALESQELCGTEVPSVPEHGRKDTVIKPLLVEPEGLEKETTFNSLLCPSGGEVSEELSLKLPPNVVEESARASVSVLGDILGSAMQNTQNLLQMPYGCGEQNMVLFAPNIYVLDYLNETQQLTPEIKSKAIGYLNTGYQRQLNYKHYDGSYSTFGERYGRNQGNTWLTAFVLKTFAQARAYIFIDEAHITQALIWLSQRQKDNGCFRSSGSLLNNAIKGGVEDEVTLSAYITIALLEIPLTVTHPVVRNALFCLESAWKTAQEGDHGSHVYTKALLAYAFALAGNQDKRKEVLKSLNEEAVKKDNSVHWERPQKPKAPVGHFYEPQAPSAEVEMTSYVLLAYLTAQPAPTSEDLTSATNIVKWITKQQNAQGGFSSTQDTVVALHALSKYGAATFTRTGKAAQVTIQSSGTFSSKFQVDNNNRLLLQQVSLPELPGEYSMKVTGEGCVYLQTSLKYNILPEKEEFPFALGVQTLPQTCDEPKAHTSFQISLSVSYTGSRSASNMAIVDVKMVSGFIPLKPTVKMLERSNHVSRTEVSSNHVLIYLDKVSNQTLSLFFTVLQDVPVRDLKPAIVKVYDYYETDEFAIAEYNAPCSKDLGNADYKDDDDKGASHHHHHH
B4: Variant A2M, bait region SEQ ID NO 127, P01023 24-1474 (protein)
chain: SVSGKPQYMVLVPSLLHTETTEKGCVLLSYLNETVTVSASLESVRGNRSLFTDLEAENDVLHCVAFAVPKSSSNEEVMFLTVQVKGPTQEFKKRTTVMVKNEDSLVFVQTDKSIYKPGQTVKFRVVSMDENFHPLNELIPLVYIQDPKGNRIAQWQSFQLEGGLKQFSFPLSSEPFQGSYKVVVQKKSGGRTEHPFTVEEFVLPKFEVQVTVPKIITILEEEMNVSVCGLYTYGKPVPGHVTVSICRKYSDASDCHGEDSQAFCEKFSGQLNSHGCFYQQVKTKVFQLKRKEYEMKLHTEAQIQEEGTVVELTGRQSSEITRTITKLSFVKVDSHFRQGIPFFGQVRLVDGKGVPIPNKVIFIRGNEANYYSNATTDEHGLVQFSINTTNVMGTSLTVRVNYKDRSPCYGYQWVSEEHEEAHHTAYLVFSPSKSFVHLEPMSHELPCGHTQTVQAHYILNGGTLLGLKKLSFYYLIMAKGGIVRTGTHGLLVKQEDMKGHFSISIPVKSDIAPVARLLIYAVLPTGDVIGDSAKYDVENCLANKVDLSFSPSQSLPASHAHLRVTAAPQSVCALRAVDQSVLLMKPDAELSASSVYNLLPEKDLTGFPGPLNDQDDEDCINRHNVYINGITYTPVSSTNEKDMYSFLEDMGLKAFTNSKIRKPKMCPQLEQYEMHGPIPENFFGVSELEGRGSEAIPMSIPTEGEGEGEGVEEPHTKLRKYFPETWIWDLVVVNSAGVAEVGVTVPDTITEWKAGAFCLSEDAGLGISSTASLRAFQPFFVELTMPYSVIRGEAFTLKATVLNYLPKCIRVSVQLEASPAFLAVPVEKEQAPHCICANGRQTVSWAVTPKSLGNVNFTVSAEALESQELCGTEVPSVPEHGRKDTVIKPLLVEPEGLEKETTFNSLLCPSGGEVSEELSLKLPPNVVEESARASVSVLGDILGSAMQNTQNLLQMPYGCGEQNMVLFAPNIYVLDYLNETQQLTPEIKSKAIGYLNTGYQRQLNYKHYDGSYSTFGERYGRNQGNTWLTAFVLKTFAQARAYIFIDEAHITQALIWLSQRQKDNGCFRSSGSLLNNAIKGGVEDEVTLSAYITIALLEIPLTVTHPVVRNALFCLESAWKTAQEGDHGSHVYTKALLAYAFALAGNQDKRKEVLKSLNEEAVKKDNSVHWERPQKPKAPVGHFYEPQAPSAEVEMTSYVLLAYLTAQPAPTSEDLTSATNIVKWITKQQNAQGGFSSTQDTVVALHALSKYGAATFTRTGKAAQVTIQSSGTFSSKFQVDNNNRLLLQQVSLPELPGEYSMKVTGEGCVYLQTSLKYNILPEKEEFPFALGVQTLPQTCDEPKAHTSFQISLSVSYTGSRSASNMAIVDVKMVSGFIPLKPTVKMLERSNHVSRTEVSSNHVLIYLDKVSNQTLSLFFTVLQDVPVRDLKPAIVKVYDYYETDEFAIAEYNAPCSKDLGNADYKDDDDKGASHHHHHH

This assay concerns the target Protease Mixtures. Briefly: cell-based or functional assay.
Turning to B1, the Protease Inhibition (% of WT); Protease Mixtures, Collagen Substrate is 250 % of WT and the Protease Inhibition (% of WT); Protease Mixtures, IGD Substrate is 229 % of WT.

Regarding B2, the Protease Inhibition (% of WT); Protease Mixtures, IGD Substrate is 150 % of WT. The same measure, in the same setting: next, B3: 237 % of WT.

Turning to B4, the Protease Inhibition (% of WT); Protease Mixtures, Collagen Substrate is 180 % of WT and the Protease Inhibition (% of WT); Protease Mixtures, IGD Substrate is 229 % of WT.

The values above are taken from US20230250154A1.
